The record followed here is US20100048482.

The target of this data set is heat shock protein 90 (HSP90), endogenous, rat heart, P82995.

B1: epsilon protein kinase C (εPKC), endogenous, rat heart (protein)
chain: MVVFNGLLKIKICEAVSLKPTAWSLRHAVGPRPQTFLLDPYIALNVDDSRIGQTATKQKTNSPAWHDEFVTDVCNGRKIELAVFHDAPIGYDDFVANCTIQFEELLQNGSRHFEDWIDLEPEGKVYVIIDLSGSSGEAPKDNEERVFRERMRPRKRQGAVRRRVHQVNGHKFMATYLRQPTYCSHCRDFIWGVIGKQGYQCQVCTCVVHKRCHELIITKCAGLKKQETPDEVGSQRFSVNMPHKFGIHNYKVPTFCDHCGSLLWGLLRQGLQCKVCKMNVHRRCETNVAPNCGVDARGIAKVLADLGVTPDKITNSGQRRKKLAAGAESPQPASGNSPSEDDRSKSAPTSPCDQELKELENNIRKALSFDNRGEEHRASSSTDGQLASPGENGEVRQGQAKRLGLDEFNFIKVLGKGSFGKVMLAELKGKDEVYAVKVLKKDVILQDDDVDCTMTEKRILALARKHPYLTQLYCCFQTKDRLFFVMEYVNGGDLMFQIQRSRKFDEPRSGFYAAEVTSALMFLHQHGVIYRDLKLDNILLDAEGHSKLADFGMCKEGILNGVTTTTFCGTPDYIAPEILQELEYGPSVDWWALGVLMYEMMAGQPPFEADNEDDLFESILHDDVLYPVWLSKEAVSILKAFMTKNPHKRLGCVAAQNGEDAIKQHPFFKEIDWVLLEQKKMKPPFKPRIKTKRDVNNFDQDFTREEPILTLVDEAIVKQINQEEFKGFSYFGEDLMP
Consider B1, for which the “CPK release into the effluent during reperfusion, hearts perfused with ψεHSP90 peptide (1 µM)” value is “perfusion with ψεHSP90 peptide decreased CPK release by 47%”.
